Measured values from the DeepSol protein solubility set.

experiment: soluble on expression in E. coli; label from the status in PepcDB or PDB records

| Sequence | soluble on expression in E. coli |
| --- | --- |
| MKLDAILWDYDGTLVNSVPKNIEITKAILAIVAPHLTGDNLPKYLHSEANYHYANHAAKNWQELYVDYYGMSHDEMLQAGGLWAEHQEKNQTPVTLFEGIDGVIKEFAQLPHGICSQNSQSNIRRVLSDNGISAPFKSIVGYDDVSNGHQKPDAYSGIKCVESIFGHAENRQLMYIGDHEADTQFARNIEQQLGGQSKVIAVAAAYSGAMPEHWSVQPDYVARTVDELFSIIAQHT | not soluble |
| MKLDLIQSMLYNNPKPQDTKEGLSDQDFSIYMDAHTVPFSKYPSYMPAGVLGICTEGNAEIQVGLRKYVICANDILIFMPGFLVSFIKSSPTFTIDYCTFSNVLFYDVINGSIKRFPTGFHTYTQTHCVYSLSQEKAEQFSIYFRLLYNRATSPTYLFTKESITNLLKLPFLELYADYYSTVKEHKVTTLHKEEIGYFFLDLLLKHYKENKEVAFYAEKLHVSSKYLTEALTLVSGKSPKEWIIHYTLQEIYALLENPSISIQEIVQRTRFANLATLRRFFKRHTGTSLLQYRKQDLYKNNQ | not soluble |
| MKLDQIDLNIIEELKKDSRLSMRELGRKIKLSPPSVTERVRQLESFGIIKQYTLEVDQKKLGLPVSCIVEATVKNADYERFKSYIQTLPNIEFCYRIAGAACYMLKINAESLEAVEDFINKTSPYAQTVTHVIFSEIDTKNGRG | soluble |
| MKLEFNLIIAGVGGQGGLTLSRIIGNAAMIEGYRVRIGETLGMSQRYGSVLSYLRFGEEVYSPLIEEGKADLMLALEPVEALRNARFLSRKSYAIINAYPIHTATTLVGKERYPDLEEIKEAIGKICRVEMRNFQEEADKINPRTLGVLMTGFAWRKGLLPLKKESIIEGIKLTLREKLWDINFRAFERGVELASL | soluble |
| MKLFHRITISLSEDDMKLIEELRRDSGDSLSKIFREAIQLYYNLLKASKAAGVDFRKYFANATRLAFHINGVEQKQFAVIDREIYRVMLKKLQEKVPPESIESDEEFRSAVAGVVKLFEITRDRWSEYTDEQKLEEILTTMEFAGAGTFARVGDKEYIFNTYAESTAITKLIISSVLASAGLKVEIDHTPGKIFIRL | not soluble |
| MKLGYSLSKSNAKNFKFYINGSAMGYKNIIINGAKSWNASPYLNTVSKGRDANPHFIISSSTIDRGATVAVCETWAYKGSKLVAKNEITTFKAFRSLSVGDKTETIAHEFGHGLGLGHVKTKNAIMLDVGFTKKIKPQRDDLNGIKAIYKLEHHHHHH | not soluble |
| MKLIIAVVQDKDSNRLSEALVKANYRATKLASTGGFLKAGNTTFLIGTEDEHVEEVMSIIKDNCKSRDQLVAPISPMGGNADSYVPYPVEVQVGGATVFVLPVEQFEQY | not soluble |
| MKLIITEDYQEMSRVAAHHLLGYMSKTRRVNLAITAGSTPKGMYEYLTTLVKGKPWYDNCYFYNFDEIPFRGKEGEGVTITNLRNLFFTPAGIKEENIQKLTIDNYREHDQKLAREGGLDLVVLGLGADGHFCGNLPNTTHFHEQTVEFPIQGEMVDIVAHGELGGDFSLVPDSYVTMGPKSIMAAKNLLIIVSGAGKAQALKNVLQGPVTEDVPASVLQLHPSLMVIADKAAAAELAFG | soluble |
| MKLIWSEESWDDYLYWQETDKRIVKKINEIIKDTRRTPFEGKGKPEPLKHNLSGFWSRRITEEHRLVYAVTDDSLLIAACRYHYLEHHHHHH | soluble |
| MKLLEVHILQTVAPSNLNRDDTGSPKDALFGGFRRARISSQAQKRAVRVAFRDWPLLSEEERAVRTKRLVEELLRRLAGVEEELARRAIENALNALGFGVKEGRTEYLLFLGNRELDALAQGIRENLEALSGEVKGKKKAEVPPELKKALERVLDGGKAVDLALFGRMLADRPELGVDAAAQVAHALSTHKVDREFDFYTAVDDLNPKEDTGAGMMGDVEFYSATLYRYAVVDLDKLVENLQGDKELALKGVLAFLEAFALTLPSGKQNSFAAHNPPLFVAFRAGEGMPRNLATAFEAPLRPKEEVPLSRLSAEALLKEWAKFDRVYGPLEPEWKGALDLTGAEGDGVPRLENLKALKEKAAEAVKALLGV | soluble |
| MKLLHTADLHMDRSFEGLTGIPTALAKRLREANQQLLMNIVTVAIREAVDLVIFAGDTFHQSQTSISMQAQLMAALEQLKQAEIPVILTFGNHDYYKKDRYWFSFPDNVFLFEKEMVETLYFETKAGEQVAVSGFSYEHPWIDENKALEFPIKQAESDIHIGIYHGDTSRKAQQNYAPFTWKDLKATGYNYWALGHIHQPQIVSEQPLIVYPGTPQGHTKKEQSLQGVAVVTLSQNQATVQFEKVAEIDWTNEEVSLAQCRDTQSVLSYLETSLLTKWQAHQQQQLMALTLKETQHLDVTVVQAIVNGELLSYLQQQLLQKTQGDFFVYRLILQAEEPTKEPIYLAASPNLLTALEKTYLDPVIFEDTTKELLRYPEFAGIFSMDEQWRLESLRLAHEQINEDFTIQEDPL | not soluble |
| MKLRSWEFYDRIARAYDSMYETPKWKLYHRLIGSFLEEYLKNPCRVLDLGGGTGKWSLFLQERGFEVVLVDPSKEMLEVAREKGVKNVVEAKAEDLPFPSGAFEAVLALGDVLSYVENKDKAFSEIRRVLVPDGLLIATVDNFYTFLQQMIEKDAWDQITRFLKTQTTSVGTTLFSFNSYAFKPEDLDSLEGFETVDIRGIGVMEYPDERISEREETIFRLEQELSRDRNIIWKADHIFFVLKKKRGA | not soluble |
| MKLSPATKSFIGKTVDISTFAIQWGFVPFVVYLGFKKGAEPMPNGQILPLSAMSLLWG | not soluble |
| MKLSPSMLDKLLRLGYSKLFADRYFQLWGERAIRIAEAMEKPLPRCFRVNTLKISVQDLVKRLNKKGFQFKRVPWAKEGFCLTREPFSITSTPEFLTGLIYIQEASSMYPPVALDPKPGEIVADMAAAPGGKTSYLAQLMRNDGVIYAFDVDENRLRETRLNLSRLGVLNVILFHSSSLHIGELNVEFDKILLDAPCTGSGTIHKNPERKWNRTMDDIKFCQGLQMRLLEKGLEVLKPGGILVYSTCSLEPEENEFVIQWALDNFDVELLPLKYGEPALTNPFGIELSEEIKNARRLYPDVHETSGFFIAKIRKL | soluble |
| MKMARMSKKKKLEMLDVARDEERNRIIRLLTEDDNFTPSLEPLIDNYLDAFIIYKTMFEEWKADGFAPTKTHKNKAGAVNEMKHPLAQQVETWNDKKNKMLEALGMTNKGKSVQKTPKNAENIQTDEPKDELAAHRNKWRKSK | not soluble |
| MKMELLLIIITQDAYIGQRFTKRSSYLCGIYDKTANTMKEPFQIPTSKDIENLIGTDLYDVWNSLCQRIEKSYEMELLWNRGGKAWTYEYKYRKGGKTLCALYAKEKTLGFMVILGKDERAKFEIQRGQFSNEVQMIYDAATTFHDGKWIMFELKDTKLFNDMERLLLIKRKPNRKAE | soluble |
| MKMFQKMCASTVIITTLLGIGGTVNSVHADSIEQQSKLGIDQETDKQIIVKFKADLKFPYEDGIEKQIQSQTNDKVLEDLLVEYPDVTFTRLFTSVSPEEIEDLEVKAPNNVSTSLLNYYILQTQNGEQKEELVDRLKKSCLIEDVYMKKQEKITPPEVQPSSVSLSPNNNPRFKQQGYLEAAPYGINAPFAWEVQGGKGSGITFVDMEYGWLLNHEDLVHQNIELMSGINIDQHVGHGTSVLGIVSSEDNEVGNIGIAPKAKAKVISQIRDNGQYNTADAILSAVNQLEAGDVLLLEAQASFDGYGDKYLPVEVQPDIFDAIRAGTDKGVVIIEAGANGWNDLDQFKDRNGKQILNRNSKDFKDSGAIMVGAGSSSFPHGRMWFSNYGSRIDVYGWGENVDTTTAEQSRSAVNLYTSSFSGTSSASPIIAGAATLVQSIAKENLGQPYRPSELRAILSNENTGTKSKDPYADQIGVLPDLKSILVNLGYGQRKPNGGNELQVTENEPNNERIQANKVNFHTPMKGTLHNSDRVDVFTFQMDSPENITISLLNEQNIGMTWVLHHESDLNNYVAYGENEGNVVKGTYHAKPGKYYLYVYKYENKDGSYVLNIK | not soluble |
| MKMISTIQKKETVMVAPIPAKRGRKPAVATAPATGQVQSLTRGLKLLEWIAESNGSVALTELAQQAGLPNSTTHRLLTTMQQQGFVRQVGELGHWAIGAHAFMVGSSFLQSRNLLAIVHPILRNLMEESGETVNMAVLDQSDHEAIIIDQVQCTHLMRMSAPIGGKLPMHASGAGKAFLAQLSEEQVTKLLHRKGLHAYTHATLVSPVHLKEDLAQTRKRGYSFDDEEHALGLRCLAACIFDEHREPFAAISISGPISRITDDRVTEFGAMVIKAAKEVTLAYGGMR | soluble |
| MKMLTVENLSKSYGEKPLFDGLSFSIAEGQRAGIIGVNGTGKSTLLKIIAGAEIPDTGDMTHSRGYTISYLSQQPEFDEQLTVLEQVFHGDTPLIRLLRDYEKALLHIEKDPSNEKVQEQLFAVQQRMDAMSVWEANANAKSLLTKLGITDFTATVGNLSGGQKKRIAMAQCFIETPDLLILDEPTNHLDHETVEWLEEYLARYTGAVLLVTHDRYFLDRVTNRIFELDNGKLYSYEGNYSTFLEAKALREEQELAQESKRQNLYRRELAWIRRGAKARSTKQKARIQRFEELKGQEGPAAKQSVDIALSGSRLGKKVLELKDVTKKFGDKTVLNNFNHIVKPGDRIGIIGANGSGKSSLLNMLAGKISPDSGEIEVGQTVKIAYYTQENEEMNLNQRMIEYIKEIAEVIHTTDGKVIGASQMLERFLFPPHSHGTPLGKLSGGERRRLYLLRILMGEPNVLLLDEPTNDLDPQTLTVLEDYLEDFSGVVLTVSHDRYFLDKVVDELFIFTGEGEVREFLGSYTDYLEMEKTRELIEKAEVQKEKKVVEEAPKQQRKRKLSYNEQREWETIEDTIAELEEKLESIGEELANVGSDFTKAQELSEAQQKTEEELEKTMERWSELSDIVEGLK | not soluble |
| MKNIIACIDGSPTTFATCEASAWVASKINAPLILLHALDKTMRPVVSEFSGQIGLGSQEELLNELAELDEARSKVALKHGKKLLEEATEWVIKKGLTNVEQLQRHGSLLESLIDLENQLRVLVIGKLGEDQSSNKTIGSQLESIIRSIKSHTLVVTSPFSIPTSYLIAFDGSPTSEKLIEKAIKTPLLFGLDCHFVMVDDFAAKSAAFEKAAIKLKNAGLSVHEDILSGSVDEALLKYQKDHQIGMMVMGAYGHSTLRQFFLGSNTTKVLIKSEVPLLLIR | not soluble |
| MKNNNLSDARKEKGLTQQELAEKLQVRKSTVSNWETGYSSPGISTAIQTAIILDKDVSFLFGNKVQETHTRVRD | not soluble |
| MKNTQLLTSLRYVLLGALTVTTSVVQAESIAITNATVYTVAKKGVLFQATVMVDEGKITAVYGKDEVPESLSADTIIDAKERILTPGFIATHNLLGLVEVGAVSDTRDSSDKDADITFDASLAFNPKSTLIAYARKGGITSSLVMPYGGEDVITGQSFVVNLSGDFDSVIMPQNAVIVSLGASGKGSRATKLQTLSNELEDAQKALAKAEKVKASSKKEKEEKEAETPSRSELVLNELLSGDKPLIAYADRATDILALLKLKQKFNLNLILAGASDAVLVSDEIAKANVVVMMSAIDNLPSSFDSLHNSLTNVAKLTDAGVKVIISNSGESYNINQLRFDAGVAVANGVAATTALAAVTANVADSFNLNSGRIAVGKNADLVLWSSDPFEISTKVDAMWINGQAMSLKSRQDALRQRYIVETDMPRAYTK | not soluble |
| MKNYPVKKNDVIEVEIIDLTHEGLGVAKVDHYPLFIENALPGEKLEIKVLKTGKSFGYGKVLTVLKSSEQRVPVKDENFTKVGISPLQHLAYGAQLSFKTQQVENVMQRVAKLQEVPVLPTIGMNDPWHYRNKAQIPVRKIDNQLQTGFFRKNSHDLIPMEHFYIQDPEIDAAIVKIRDIMRKYSVKPYNESDNTGNLRHIVVRRGYHTGEMMVVLITRTPKLFPISKIVPDILEAIPEVVSIVQNVNPKRTNVIFGDETILLHGSEKITDTIFDLKFEISARSFYQVNPQQTEVMYQKVKEYAALTGNEIVVDAYCGIGTIGLTLAQDAKQVYGIEVIEEAVKDAENNAKLNNIENATFTAGLAEELLPKLVENGLQPDVVVVDPPRKGLDGQLVNTLIETQPERIVYVSCNPATLARDIALLTEGGYEAKEIQPVDNFPQTTHIESVTLLTKAVD | not soluble |
